Measurements taken from the DeepSol protein solubility set.

Test: soluble on expression in E. coli; label from the status in PepcDB or PDB records

Soluble on expression in E. coli, not soluble:
MGSDKIHHHHHHMSSFAEFSRLALTLEPWRQHIVFVGGWAFRLYGYEPRAYTADHKPIFTQDADVAYDKRELIEGDIKTALEGAGFTEQPNLAGGFRPPAMRYNLDGDENGFYAEFLTPLTGSGKKRDGKGGLKEDATERYAGIVAQKLRFLEVLLFKPWLVTIPKEESGLDEAVADLRVPNPVSFMIQKLLIRDRREGKKRAQDVLYIHGTLQIFYGVVENDLVPIWKELEATLHANQRKSVREGVQELFSEMNDVIREAAEIPDDKLDPEAMLQLCREGFEELFGDI
MKKLMLGNEAVARGAYEAGVLVATAYPGTPSTEITEYISKYSEINSEWSVNEKVALEVGIGSAIAGARTIVSMKHVGLNVAADPLMTVAYTGINAGLLIVVADDPSMHSSQNEQDTRYYGMFAKIPVLEPSDSQECKDFVKLGFEISEKFDTPVILRLSTRVSHSQSLVELEEKESIELKPYD
MGSDKIHHHHHHMRLTHVDQLNLPFGTLSSYHPYASAPGEAVPVSFDQQRHVGAGERPGSWMAISVSMPKAISREELERAWLEVIERHGTLRTVFSTGMGGEVQQHRIDVGPGKWIDHAVAPGESINEALRAVLNRQCSPYSRPSHSLCIIDAHPRPTVIIGSDHSHVDMWSMLVIVRDLLAALDMELPVEPPLAFESHTAELLAAPPAPERIHQRWREILEAGGGKMPQFPLPLGDAISMPERVEVRDIFGVNGLAIYSARARAQQVSSLALTISVMADVTAALADLPLRAVFPVHSRFDQRWHDSVGWFISNSVIEVPDSDPHTAAQAVREAVSLGSYPLAELLEPWGGMPETPGMFAISWLDLRRLPVSIDDIGLQAQYVSASLRTDGVMLWFILDRSGAHLRCRYPDSLVARENVGRWIDAIVAQMRAEAGTVNLQAGGEQLTLRHGTRADISEIAPLLARNAADPCELVDLEHALDLLTHESSHFLAVVRNARGKIIAAMQLTIVPEFSRGGALHLHIEGPFIIPEYRTTDLDKKLRAWAVEHGRARGVKVEEVVG
MGSDKIHHHHHHMRILGIETSCDETGVAIYDEQRGLIANQLYSQIEMHADYGGVVPELASRDHIRKTLPLIQAALKEANLTASEIDGIAYTAGPGLVGALLVGATIARALAYAWNVPALAVHHMEGHLMAPMLEENPPEFPFIALLISGGHTQLIKVAGVGEYEILGESIDDAAGEAFDKTGKLLGLDYPAGVALSQLAEKGTPNRFVFPRPMTDRPGLDFSFSGLKTFAANTINAQLDENGQLNEQTRCDIAHAFQQAVVDTIIIKCKRALQQTGYSRLVMAGGVSANKQLRAELATMMQALKGQVYYPRPQFCTDNGAMIAYTGFIRLKKGEKTDLSVSVKPRWPMTTLLKLSAHHKV
METSMRYTSNSKSMKIHAKEKVPVNSKTHLQLHGELDTGTGAPSYFCAMIRHFFPEASTGLGVGLHYDKRQKLRCLVRGKKEFPVRADKRVTFNIKGRCDIDQDLNQKNPKGAAEFAWNIMDFKEDQDVRIKVGYEMFDKVPYMQIRENNWTLNANMKGKWNLRYDL
MGHHHHHHSHMYSEIQRERADIGGLMARPEYREWNPELIKPKKLLNPVKASRSHQELHRELLMNHRRGLGVDSKPELQRVLEHRRRNQLIKKKKEELEAKRLQCPFEQELLRRQQRLNQLEKPPEKEEDHAPEFIKVRENLRRIATLTSEEREL
MRIHAFHRLYQYRQSISTKPFNARGCKVQRCPFCQVSEQHCLCELQPDIDSNVACMLIVSENEVFKPSNTGRLIADTVKETYVYQWNRTEPSQEMLDLLSNEDYLPVIVFPADYVDQPERLLDGLHTEHLHRTDGNSKKWLLIFIDGSWREARKIFRRSEFLQSLPVLSIEPECLSEYIMRRSENEQHLSTAEVATLVLKQAGENKASECLQLWFEAFRETYMLTKTRVKNDPNRPHLKRFKEWLKTESLEHHHHHH

Soluble on expression in E. coli, soluble:
MGSDKIHHHHHHENLYFQGDSFKTKSGKELTITFIKHGSLMLTYDNHSIQVDPVSEYADYTTFPKADIILITHEHGDHLDPKAIQAVEKSDTEIIANENSQKKLGKGKVLKNGDTDTSISYMKIEAVPAYNTTPGRDKYHPRHRDNGYILTFDGLRVYIAGDTEDIPEMKDLKDIDIAFLPVNQPYTMTVSQAAKAARMFSPKILYPYHYGDTKIGELKDALKDSGIDVRIRELQ
MNIEQQLYDVVKQLIEQRYPNDWGGAAAIRVEDGTIYTSVAPDVINASTELCMETGAILEAHKFQKKVTHSICLARENEHSELKVLSPCGVCQERLFYWGPEVQCAITNAKQDIIFKPLKELQPYHWTEAYHDEMVKEWSTR
